Test results taken from patent US20050143285A1.

Columns and labels:
[1] = biological target: T1, Aplysia californica acetylcholine binding protein (AChBP) (Aplysia californica)
T1 chain: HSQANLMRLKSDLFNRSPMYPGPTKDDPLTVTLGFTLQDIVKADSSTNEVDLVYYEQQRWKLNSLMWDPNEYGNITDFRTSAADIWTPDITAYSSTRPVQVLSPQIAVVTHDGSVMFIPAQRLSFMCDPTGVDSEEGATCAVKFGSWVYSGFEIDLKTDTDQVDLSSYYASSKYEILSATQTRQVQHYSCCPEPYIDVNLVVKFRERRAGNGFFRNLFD

[2] = biological target: T2, Lymnaea stagnalis acetylcholine binding protein (AChBP) (Lymnaea stagnalis), P58154; assay: stopped-flow spectrofluorimetry
[3] = biological target: T1, Aplysia californica acetylcholine …
[4] = biological target: T2, Lymnaea stagnalis acetylcholine binding …
[5] = biological target: T1, Aplysia californica acetylcholine …; assay: stopped-flow spectrofluorimetry, excitation 280 nm, emission above 305 nm
[6] = biological target: T2, Lymnaea stagnalis acetylcholine binding …; assay: as above
[7] = biological target: T1, Aplysia californica acetylcholine …
[8] = biological target: T2, Lymnaea stagnalis acetylcholine binding …; assay: ratio of Kd on Lymnaea AChBP to Kd on Aplysia AChBP

T2 sequence (P58154 20-229): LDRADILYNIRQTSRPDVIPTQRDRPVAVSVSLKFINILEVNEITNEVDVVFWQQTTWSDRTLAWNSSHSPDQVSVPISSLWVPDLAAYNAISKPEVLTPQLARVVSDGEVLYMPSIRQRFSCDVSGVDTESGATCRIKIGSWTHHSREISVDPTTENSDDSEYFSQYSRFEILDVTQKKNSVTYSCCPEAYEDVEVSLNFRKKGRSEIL

Binder: GCCSDPRCAWRC (modifications not checked) [α-conotoxin ImI, P50983 5-16]
- fold greater affinity than for L-AChBP [1]: > 10000 fold
- koff [2]: 19 s⁻¹
- Kd [3]: 0.88 nM
- Kd [4]: 14 µM
- kon [5]: 1.6e+07 M⁻¹ s⁻¹
- kon [6]: 1.4e+06 M⁻¹ s⁻¹
- koff [7]: 0.01 s⁻¹
- Kd Ratio L/A [8]: 16000
